In patent US20240043507A1 (RQ BIOTECHNOLOGY, published 2024):
“And” between values parts separate entries of the source, which are not always exact repeats. Equal values may be shown once.

B1: antibody 253H165L (antibody, V domains shown)
VH: not shown
VL: DIVMTQSPGTLSLSPGERATLSCRASQSVRSSYLAWYQQKPGQAPRLLIYGASRRGTGIPDRFSGSGSGTDFTLTISRLEPEDFAVYYCQQYGSSPWTFGQGTKVEIK
B2: antibody 165 (antibody, V domains shown)
VH: QVQLVQSGPEVKKPGTSVKVSCKASGFTFTSSAVQWVRQARGQRLEWIGWIVVGSGNTNYAQKFQESVTITRDMSTSTAYMELSSLRSEDTAVYYCAAPHCIGGSCHDAFDIWGQGTMVTVSS
VL: B1 VL
notes: also called mAb 165
B3: antibody 88 (antibody, V domains shown)
VH: QLQLQESGPGLVKPSQTLSLTCTVSGGSISSGSYNWTWIRQPAGKGLEWIGRIYNSGSTNYNPSLKSRVTISVDTSKNQLSLKVRSVTAADTAVYYCARHCSGGTCYPKYYYGMDVWGQGTTVTVSS
VL: QSALTQPPSVSEAPRQRVTISCSGSSSNIGNNAVNWYQQFPGKAPKLLIYYDDLLPSGVSDRFSGSKSGTSASLAISGVQSEDEADYYCAAWDDSLNVVVFGGGTKLTVL
notes: also called mAb 88
B4: antibody 175 (antibody, V domains shown)
VH: EVQLVESGGGLIQPGGSLRLSCAASGLTVSRNYMSWVRQAPGKGLEWVSLIYSGGSTYYADSVKGRFTISRDNSKNTLYLQMNSLRAEDTAVYYCARDLRGEVWGQGTMVTVSS
VL: not shown
notes: also called mAb 175
B5: antibody 132 (antibody, V domains shown)
VH: QVQLQQWGAGLLKPSETLSLTCAVYGGSFSGYYWSWIRQPPGKGLEWIGEINHSGSTNYNPSLKSRVTISVDTSKNQFSLKLSSVTAADTAVYYCARTDYYDSIDWGQGTLVTVSS
VL: QSVLTQEPSLTVSPGGTVTLTCGSSTGAVTSGHYPYWFQQKPGQVPRTLIYDTRNKHSWTPARFSGSLLGGKAALTLSGAQPEDEAEYYCLLSSSGARVFGGGTKLTVL
B6: antibody 278 (antibody, V domains shown)
VH: QVQLVQSGAEVKKPGASVKVSCKASGYIFIRYGISWVRQAPGQGLEWMGWISANNGYTNYAQKLQGRVTMTTDTSTSTAYMELRSLRSDDTAVYYCARDGGILTGYLDYFDHWGQGTLVTVSS
VL: DIQMTQSPSSLSASVGDRLTITCRASQSIASYLNWYQQKPGKAPKLLIYAASSLQSGVPSRFSGSGSGTDFTLTISSLQPEDFATYHCQQSYSTLGITFGPGTKVDIK
notes: also called mAb 278
B7: antibody 158 (antibody, V domains shown)
VH: EVQLLESGGDLIQPGGSLRLSCAASGVTVSSNYMSWVRQAPGKGLEWVSIIYPGGSTFYADSVKGRFTISRDNSKNTLYLQMHSLRAEDTAVYYCARDLGSGDMDVWGKGTTVTVSS
VL: DIVMTQSPSFLSASVGDRVTITCRASQGISSYLAWYQQKPGKAPKLLIQAASTLQSGVPSRFSGSGSGTEFTLTISSLQPEDFATYYCQQLNSYRYTFGQGTKVEIK
notes: also called mAb 158
B8: antibody 222 (antibody, V domains shown)
VH: EVQLVESGGGLIQPGGSLRLSCAASGLTVSSNYMSWVRQAPGKGLEWVSVIYSGGSTFYADSVKGRFTISRDNSKNTLYLQMNSLGAEDTAVYYCARGEGSPGNWFDPWGQGTLVTVSS
VL: DVVMTQSPGTLSLSPGERATLSCRASQSVPSSYLAWYQQKPGQAPRLLIYGASTRATGIPDRFSGSGSGTDFTLTISRLEPEDFAVYYCQHYDTSPRFGGGTKVDIK
B9: antibody 269 (antibody, V domains shown)
VH: QVQLVESGGGLIQPGGSLRLSCAASGLTVNRNYMSWIRQAPGKGLEWVSVIYSGGSTFYADSVKGRFTISRDNSKNTLSLQMNSLRAEDTAIYYCARDFYEGSFDIWGQGTMVTVSS
VL: AIQLTQSPSFLSASIGDRVTITCRASQGISSYLAWYQQKPGKAPKLLIYAASTLQSGVPSRFSGSGSGTEFTLTISSLQPEDFASYYCQQLNSYPAPVFGPGTKVDIK
notes: also called mAb 269
B10: antibody 150 (antibody, V domains shown)
VH: QVQLVESGGGLIQPGGSLRLSCAASGVTVSSNYMSWVRQAPGKGLEWVSIIYSGGTTYYADSVKGRFTISRDSSMNTLYLQMNSLRAEDTAVYYCARDLMVYGIDVWGQGTTVTVSS
VL: EIVMTQSPSSLSASVGDRVTITCRASQGISSYLAWYQQKPGKAPKLLIYAASTLQSGVPSRFSGSGSGTDFTLTISSLQPEDFATYYCQQLDSYPPGYTFGQGTKVDIK
B11: antibody 58 (antibody, V domains shown)
VH: QVQLVESGGGLVQPGRSLRLSCAASGFTFDDYAMHWVRQPPGKGLEWVSGVSWNSGTIGYADSVKGRFIISRDNAKNSLYLQMNSLKAEDTALYYCAREVGGTFGVLISREGGLDYWGQGTLVTVSS
VL: SYELTQPPSVSVAPGQTARITCGGNTIGSKSVHWYQQRPGQAPVLVVYDDSDRPSGIPERFSGSNSGNTATLTISRVEAGDEADYYCQVWDSSSDRVVFGGGTKLTVL
notes: also called mAb 58
B12: antibody 170 (antibody, V domains shown)
VH: QVQLVESGAEVKKPGESLKISCKGSGYSFTSYWIVWVRQMPGKGLEWMGIIYPGDSDTKYSPSFQGQVSISADKPISTAYLQWSRLKASDTAMYYCARLGNWLVDYWGQGTLVTVSS
VL: DIVMTQSPLSLSVTPGQPASISCKSSQSLLHSDGKTYLYWYLQKPGQPPQLLMYEVSNRFSGVPDRFSGSGSGTDFTLKISRVESEDVGVYYCMQSIQLPRGITFGQGTRLEIK

molecular target: spike protein of SARS-CoV-2 strain B.1.1.7 (SARS-CoV-2, UniProt P0DTC2 14-1273); assay: cell-based or functional assay

First: B1
Second: B2
The “IC50 (FRNT neutralisation)” value of the first is 35-fold lower: 0.006 µg/mL for the first, 0.212 µg/mL for the second.

Going from B3 to B4, the “IC50 (FRNT neutralisation)” value rises from 0.058 µg/mL to 0.575 µg/mL (9.9-fold).

B5 and B6 are within 1.5-fold of each other in “IC50 (FRNT neutralisation)” value: 0.337 µg/mL for the first, 0.307 µg/mL for the second.

Compared with B7, B9 is higher in “IC50 (FRNT neutralisation)” value: 0.254 µg/mL for the first, over 10 µg/mL for the second.

B10 and B11 are within 1.5-fold of each other in “IC50 (FRNT neutralisation)” value: 0.139 µg/mL for the first, 0.116 µg/mL for the second.

For B12, the “IC50 (FRNT neutralisation)” value was 0.105 µg/mL.

In order of falling “FRNT50 ratio B.1.1.7/Victoria” value:
1. B10  12
2. B5  7
3. B12  4.2

With B8 the “IC50 (FRNT neutralisation)” value was 0.014 µg/mL and 0.011 µg/mL.

molecular target: spike protein of SARS-CoV-2 strain Victoria (SARS-CoV-2/human/AUS/VIC01/2020) (SARS-CoV-2, UniProt P0DTC2 14-1273); assay: cell-based or functional assay

In order of rising “IC50 (FRNT neutralisation)” value:
1. B1  0.003 µg/mL
2. B10  0.012 µg/mL
3. B6  0.014 µg/mL
4. B12  0.025 µg/mL
5. B4  0.026 µg/mL
6. B9  0.03 µg/mL
7. B7  0.031 µg/mL
8. B3  0.033 µg/mL
9. B2  0.034 µg/mL
10. B11  0.041 µg/mL
11. B5  0.048 µg/mL

For B8, the “IC50 (FRNT neutralisation)” value was 0.019 µg/mL and 0.017 µg/mL.

molecular target: spike protein of SARS-CoV-2 strain P.1 (SARS-CoV-2, UniProt P0DTC2 14-1273); assay: cell-based or functional assay

Going from B1 to B2, the “IC50 (FRNT neutralisation)” value rises from 0.019 µg/mL to 0.241 µg/mL (13-fold).

First: B3
Second: B4
The “IC50 (FRNT neutralisation)” value of the first is higher: over 10 µg/mL for the first, 3.88 µg/mL for the second.

Compared with B5, B6 is lower in “IC50 (FRNT neutralisation)” value: over 10 µg/mL for the first, 0.245 µg/mL for the second.

B7 and B9 cannot be ordered by “IC50 (FRNT neutralisation)” value: over 10 µg/mL for the first, over 10 µg/mL for the second.

First: B10
Second: B11
The “IC50 (FRNT neutralisation)” value of the first is 5.9-fold lower: 0.04 µg/mL for the first, 0.236 µg/mL for the second.

B12 was tested, and the “IC50 (FRNT neutralisation)” value was over 10 µg/mL.

Going from B5 to B10, the “FRNT50 ratio P.1/Victoria” value falls from over 208 to 3.4.

In the case of B12, the “FRNT50 ratio P.1/Victoria” value is reported as over 402.

With B8 the “IC50 (FRNT neutralisation)” value was 0.008 µg/mL and 0.009 µg/mL.

molecular target: spike protein of SARS-CoV-2 strain B.1.351 (SARS-CoV-2, UniProt P0DTC2 14-1273); assay: cell-based or functional assay

Compared with B1, B2 is 4.2-fold higher in “IC50 (FRNT neutralisation)” value: 0.013 µg/mL for the first, 0.054 µg/mL for the second.

B3 and B4 cannot be ordered by “IC50 (FRNT neutralisation)” value: over 10 µg/mL for the first, over 10 µg/mL for the second.

Compared with B5, B6 is lower in “IC50 (FRNT neutralisation)” value: over 10 µg/mL for the first, 0.16 µg/mL for the second.

B7 and B9 cannot be ordered by “IC50 (FRNT neutralisation)” value: over 10 µg/mL for the first, over 10 µg/mL for the second.

Going from B10 to B11, the “IC50 (FRNT neutralisation)” value falls from 0.35 µg/mL to 0.136 µg/mL (2.6-fold).

With B12 the “IC50 (FRNT neutralisation)” value was over 10 µg/mL.

First: B5
Second: B10
The “FRNT50 ratio B.1.351/Victoria” value of the first is higher: over 208 for the first, 30 for the second.

With B12 the “FRNT50 ratio B.1.351/Victoria” value was over 402.

B8 was tested, and the “IC50 (FRNT neutralisation)” value was 0.017 µg/mL and 0.016 µg/mL.
